{"source": "patent US20160243521A1", "key": {"[1]": {"biological_target": "human polyclonal IgG (Gamma-globulin NICHIYAKU, NIHON PHARMACEUTICAL CO., LTD.) (human)", "test": "column dynamic binding capacity at 5% breakthrough, residence time 3 min (Test example 2); Protein A 35 g/L on cellulose beads made with crosslinking agent EX-314"}, "[2]": {"biological_target": "human polyclonal IgG (Gamma-globulin NICHIYAKU, NIHON PHARMACEUTICAL CO., LTD.) (human)", "test": "column dynamic binding capacity at 5% breakthrough, residence time 3 min (Test example 2); Protein A 35 g/L on cellulose beads made without crosslinking agent in the dispersion"}}, "data": [{"substance": "non-orientation-controlled Protein A (from UniProt P38507 37-327) (ligand)", "values": [{"measurement": "5% DBC at RT of 3 min (g per 1 L of the filling adsorbent)", "setting": "[1]", "value": 65}, {"measurement": "5% DBC at RT of 3 min (g per 1 L of the filling adsorbent)", "setting": "[2]", "value": 49}]}]}
